Assay [1] addresses T1, rHuman ErbB2/Fc Chimera, CF (R&D Systems Cat#1129-ER) (human, UniProt P04626 23-652).
T1 construct: Bought recombinant protein; also called human epidermal growth factor 2 receptor; Fc part of the bought chimera not given
Briefly: ECL multispot (MSD) assay, antigen spotted on plate; blank spot of this row 327.

The target in assay [2] is T2, rHuman EGF R/Fc Chimera, CF (R&D Systems Cat#344-ER) (human, UniProt P00533 25-645).
T2 construct: Bought recombinant protein; also called epidermal growth factor receptor; Fc part of the bought chimera not given
Described as above.

The target of assay [3] is T3, rHuman HGF R/c-MET/Fc Chimera, CF (R&D Systems Cat#358-MT/CF) (human, UniProt P08581 25-932).
T3 construct: Bought recombinant protein; also called HGF R/Fc; hepatocyte growth factor receptor; Fc part of the bought chimera not given
T3 sequence (P08581 25-932, change not shown): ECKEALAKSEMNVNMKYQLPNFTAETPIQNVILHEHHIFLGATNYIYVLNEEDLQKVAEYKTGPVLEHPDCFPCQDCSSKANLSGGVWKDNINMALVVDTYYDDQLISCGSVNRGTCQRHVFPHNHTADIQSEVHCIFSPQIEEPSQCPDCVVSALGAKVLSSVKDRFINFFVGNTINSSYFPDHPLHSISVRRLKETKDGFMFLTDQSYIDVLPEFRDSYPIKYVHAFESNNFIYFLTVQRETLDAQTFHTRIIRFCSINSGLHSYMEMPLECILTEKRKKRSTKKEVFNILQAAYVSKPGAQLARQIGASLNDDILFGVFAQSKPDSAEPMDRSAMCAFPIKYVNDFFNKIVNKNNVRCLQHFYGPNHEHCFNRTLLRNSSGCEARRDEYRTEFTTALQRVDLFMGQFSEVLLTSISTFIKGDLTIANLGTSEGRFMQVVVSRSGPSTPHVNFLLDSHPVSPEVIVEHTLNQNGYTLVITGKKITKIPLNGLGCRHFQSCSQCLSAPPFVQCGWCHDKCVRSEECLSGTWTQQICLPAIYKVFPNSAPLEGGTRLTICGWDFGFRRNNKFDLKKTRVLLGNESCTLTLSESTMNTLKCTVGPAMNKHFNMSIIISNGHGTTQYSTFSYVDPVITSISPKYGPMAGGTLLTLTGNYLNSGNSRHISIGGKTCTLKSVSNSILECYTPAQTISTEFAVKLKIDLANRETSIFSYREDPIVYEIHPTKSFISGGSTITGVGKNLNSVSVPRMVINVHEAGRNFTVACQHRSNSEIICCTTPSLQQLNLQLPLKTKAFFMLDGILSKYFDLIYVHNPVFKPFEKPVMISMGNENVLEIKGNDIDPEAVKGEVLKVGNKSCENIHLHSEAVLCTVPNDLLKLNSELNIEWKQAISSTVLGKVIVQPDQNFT
The description is as above.

Assay [4] concerns the target T4, rHuman Notch-1/Fc Chimera, CF (R&D Systems Cat#3647-TK) (human, UniProt P46531 19-526).
T4 construct: Bought recombinant protein; Fc part of the bought chimera not given
The description is as above.

The target of assay [5] is T5, rHuman CD44/Fc Chimera, CF (R&D Systems Cat#3660-CD) (human, UniProt P16070 21-220).
T5 construct: Bought recombinant protein; Fc part of the bought chimera not given
Described as above.

For assay [6], the target named is T6, rHuman IGF-1 sR, (IGF-1 sR), CF (R&D Systems Cat#391-GR) (human, UniProt P08069 31-932).
T6 construct: Bought recombinant soluble receptor; also called insulin-like growth factor-1 soluble receptor
The assay is described as above.

The target in assay [7] is T7, rHuman P-Cadherin/Fc Chimera, CF (R&D Systems Cat#861-PC) (human, UniProt P22223 108-654).
T7 construct: Bought recombinant protein; Fc part of the bought chimera not given
Described as above.

The target in assay [8] is T8, rHuman Erythropoietin R/Fc Chimera, CF (R&D Systems Cat#963-ER) (human, UniProt P19235 25-250).
T8 construct: Bought recombinant protein; also called EPO R; EPO R/Fc; Fc part of the bought chimera not given
T8 sequence (looked up): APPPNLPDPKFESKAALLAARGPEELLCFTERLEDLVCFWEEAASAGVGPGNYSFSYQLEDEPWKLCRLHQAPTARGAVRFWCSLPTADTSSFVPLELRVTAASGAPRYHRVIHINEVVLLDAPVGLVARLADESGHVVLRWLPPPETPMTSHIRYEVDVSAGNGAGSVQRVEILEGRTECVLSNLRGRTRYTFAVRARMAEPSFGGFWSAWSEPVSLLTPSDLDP
The description is as above.

Assay [9] addresses T9, Recombinant Human DLL4 (R&D Systems Cat#1506-D4/CF) (human, UniProt Q9NR61 27-524).
T9 construct: Bought recombinant protein; also called delta-like protein 4; rHuman DLL4
The assay is described as above.

Assay [10] concerns the target T1, rHuman ErbB2/Fc Chimera, CF (R&D …). Briefly: ECL multispot (MSD) assay, antigen spotted on plate; blank spot of this row 278.
Assay [11] deals with T2, rHuman EGF R/Fc Chimera, CF (R&D …). The description is as above.
Assay [12] concerns the target T3, rHuman HGF R/c-MET/Fc Chimera, CF (R&D …). Described as above.
The target in assay [13] is T4, rHuman Notch-1/Fc Chimera, CF (R&D …). The description is as above.
Assay [14] has as its target T5, rHuman CD44/Fc Chimera, CF (R&D Systems …). The assay is described as above.
Assay [15] deals with T6, rHuman IGF-1 sR, (IGF-1 sR), CF (R&D …). The description is as above.
Assay [16] has as its target T7, rHuman P-Cadherin/Fc Chimera, CF (R&D …). The assay is described as above.
Assay [17] has as its target T8, rHuman Erythropoietin R/Fc Chimera, CF …. The assay is described as above.
Assay [18] has as its target T9, Recombinant Human DLL4 (R&D Systems …). The description is as above.
In assay [19] the target is T1, rHuman ErbB2/Fc Chimera, CF (R&D …). Put plainly: ECL multispot (MSD) assay, antigen spotted on plate; blank spot of this row 332.
Assay [20] concerns the target T2, rHuman EGF R/Fc Chimera, CF (R&D …). Described as above.
The target in assay [21] is T3, rHuman HGF R/c-MET/Fc Chimera, CF (R&D …). The description is as above.
The target in assay [22] is T4, rHuman Notch-1/Fc Chimera, CF (R&D …). Described as above.
For assay [23], the target named is T5, rHuman CD44/Fc Chimera, CF (R&D Systems …). The assay is described as above.
The target of assay [24] is T6, rHuman IGF-1 sR, (IGF-1 sR), CF (R&D …). Described as above.
Assay [25] addresses T7, rHuman P-Cadherin/Fc Chimera, CF (R&D …). The assay is described as above.
Assay [26] has as its target T8, rHuman Erythropoietin R/Fc Chimera, CF …. The description is as above.
For assay [27], the target named is T9, Recombinant Human DLL4 (R&D Systems …). The assay is described as above.

The source of these data is patent publication US20120316071A1 (published 2012).

B1: Fab VH1-46_IGHD6-6*01_IGHJ1*01 S102A/S103P/S104F/H111F (APFF) & L6_IGKJ1*01 S30Q (Fab, V domains shown)
VH: QVQLVQSGAEVKKPGASVKVSCKASGYTFTSYYMHWVRQAPGQGLEWMGIINPSGGSTSYAQKFQGRVTMTRDTSTSTVYMELSSLRSEDTAVYYCAREEYAPFSAEYFQFWGQGTLVTVSS
VL: EIVLTQSPATLSLSPGERATLSCRASQSVQSYLAWYQQKPGQAPRLLIYDASNRATGIPARFSGSGSGTDFTLTISSLEPEDFAVYYCQQRSNWPPWTFGQGTKVEIKR
notes: Fab made in E. coli: VH cloned into Plasmid A (CH1, His6 and Flag tags), kappa VL into Plasmid C (kappa CL); also called APFF / S30Q
For B1, the ECL signal in assay [1] came to 340; in assay [2] it was 381; in assay [3], 344; in assay [4] it was 326; in [5], 411; in assay [6], 354. In addition, the ECL signal in [7] is 393; in [8], 376; in [9] it was 197000.

B2: Fab VH1-46_IGHD6-6*01_IGHJ1*01 S102A/S103P/S104F/H111F (APFF) & L6_IGKJ1*01 S30R (Fab, V domains shown)
VH: QVQLVQSGAEVKKPGASVKVSCKASGYTFTSYYMHWVRQAPGQGLEWMGIINPSGGSTSYAQKFQGRVTMTRDTSTSTVYMELSSLRSEDTAVYYCAREEYAPFSAEYFQFWGQGTLVTVSS
VL: EIVLTQSPATLSLSPGERATLSCRASQSVRSYLAWYQQKPGQAPRLLIYDASNRATGIPARFSGSGSGTDFTLTISSLEPEDFAVYYCQQRSNWPPWTFGQGTKVEIKR
notes: Fab made in E. coli: VH cloned into Plasmid A (CH1, His6 and Flag tags), kappa VL into Plasmid C (kappa CL); also called APFF / S30R
Consider B2, for which the ECL signal in assay [10] was 404; in assay [11] it was 395; in [12], 452; in assay [13], 313; in assay [14] it was 472; in assay [15] it was 422. Further, the ECL signal came out at 442 in assay [16], 525 in assay [17] and 189000 in [18].

B3: Fab VH1-46_IGHD6-6*01_IGHJ1*01 S102A/S103P/S104F/H111F (APFF) & L6_IGKJ1*01 S31T (Fab, V domains shown)
VH: QVQLVQSGAEVKKPGASVKVSCKASGYTFTSYYMHWVRQAPGQGLEWMGIINPSGGSTSYAQKFQGRVTMTRDTSTSTVYMELSSLRSEDTAVYYCAREEYAPFSAEYFQFWGQGTLVTVSS
VL: EIVLTQSPATLSLSPGERATLSCRASQSVSTYLAWYQQKPGQAPRLLIYDASNRATGIPARFSGSGSGTDFTLTISSLEPEDFAVYYCQQRSNWPPWTFGQGTKVEIKR
notes: Fab made in E. coli: VH cloned into Plasmid A (CH1, His6 and Flag tags), kappa VL into Plasmid C (kappa CL); also called APFF / S31T
On to B3, for which the ECL signal is 285 in assay [19]; 351 in assay [20]; 432 in assay [21]; 261 in [22]; 384 in assay [23]; 303 in assay [24]. The values for the ECL signal in assay [25], in assay [26] and in assay [27] were 332, 423 and 191000, respectively.
